What was measured:
Experiment in all cases: ELISA
Conditions in all cases: both partners purified
[1] = target: T1, MERS-CoV prefusion-stabilized spike (S2P) (MERS-CoV EMC/2012 (GenBank AFS88936), UniProt K0BRG7, stabilised)
T1 construct: also called MERS-CoV S2P

[2] = target: T2, RaTG13 prefusion-stabilized spike (S2P) (Bat coronavirus RaTG13 (GenBank …, UniProt A0ABF7PLN6, stabilised))
T2 construct: also called RaTG13 S2P

[3] = target: T3, WIV1 prefusion-stabilized spike (S2P) (Bat SARS-like coronavirus WIV1 …, UniProt U5WI05, stabilised)
T3 construct: also called WIV1 S2P

[4] = target: T4, SHC014 prefusion-stabilized spike (S2P) (Bat SARS-like coronavirus RsSHC014 …, UniProt U5WLK5, stabilised)
T4 construct: also called SHC014 S2P

[5] = target: T5, SARS-CoV prefusion-stabilized spike (S2P) (SARS-CoV Urbani (AAP13441.1), UniProt P59594, stabilised)
T5 construct: also called SARS-CoV S2P

Measured: binding result

B1: antibody WS6 (IgG) (antibody, V domains shown)
VH: EVQFQQSGTVLARPGASVKMSCKASGYTFTNYWIHWVKQRPGQGLEYIGGTYPGNGDTTYNQKFKGKAKVTAVTPTSTAYMDLSSLTNEDSAVYYCTRTGSYFDYWGQGTTLTVSS
VL: QIVLTQSPAIMSASPGEKVTISCSATSSVSYIYWYQQRPGSSPKPWIYRTSNLASGVPVRFSGSGSGTSYSLTISNMEAEDAATYYCQQYQSYPPTFGAGTKLELK
notes: also called mAb WS6
binds: all assays above

— publication doi:10.1101/2022.01.25.477770 (bioRxiv, 2022)
